pKd: −log10 of the molar value.
Molecular target: T1, NgAgo (engineered Natronobacterium gregoryi Argonaute) (Natronobacterium gregoryi) (UniProt L0AJX6)
T1 sequence: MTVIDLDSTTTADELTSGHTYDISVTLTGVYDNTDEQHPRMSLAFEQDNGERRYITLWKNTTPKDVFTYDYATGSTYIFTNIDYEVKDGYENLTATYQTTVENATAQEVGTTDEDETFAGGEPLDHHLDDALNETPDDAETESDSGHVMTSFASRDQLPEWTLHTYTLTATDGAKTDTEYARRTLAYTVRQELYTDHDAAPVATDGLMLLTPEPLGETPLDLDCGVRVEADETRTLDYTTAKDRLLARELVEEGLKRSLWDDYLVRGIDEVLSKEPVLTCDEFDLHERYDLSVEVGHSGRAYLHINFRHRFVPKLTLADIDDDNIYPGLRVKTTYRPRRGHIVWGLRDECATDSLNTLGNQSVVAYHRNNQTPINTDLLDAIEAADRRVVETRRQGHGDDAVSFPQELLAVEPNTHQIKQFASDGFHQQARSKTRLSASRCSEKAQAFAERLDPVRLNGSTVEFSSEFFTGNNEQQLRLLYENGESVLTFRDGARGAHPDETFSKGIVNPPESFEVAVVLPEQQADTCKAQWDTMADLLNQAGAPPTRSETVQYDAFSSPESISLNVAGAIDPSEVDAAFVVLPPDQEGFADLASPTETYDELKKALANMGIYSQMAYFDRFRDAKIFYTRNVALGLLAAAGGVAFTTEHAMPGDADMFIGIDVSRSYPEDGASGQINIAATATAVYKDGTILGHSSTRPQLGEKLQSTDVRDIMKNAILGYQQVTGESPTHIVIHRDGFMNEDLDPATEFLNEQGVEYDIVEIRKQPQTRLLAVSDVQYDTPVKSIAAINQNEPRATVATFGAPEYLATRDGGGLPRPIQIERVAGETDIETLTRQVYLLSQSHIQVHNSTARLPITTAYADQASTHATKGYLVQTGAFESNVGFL
Test: SPR
Conditions: 5'-phosphate on guide; SPR: 10 mM HEPES, 150 mM NaCl, 3 mM EDTA, pH 7.4, 0.005% Tween-20, temperature not stated; EMSA: 2% agarose, 1x TAE, 100 V

**Q.** How did the pKd turn out when “TAAACCCAAAGAATGTCTGAGGGG / CCCTCCTTTTGTAAACAATGCATTCATCGACCTTCCAGCCGGGGTTGGTTCTGCCCCTCTCTCTGTCCTTCAGAGGAACCAGGGACCTCGGGCACCCCAGAGCCCCTCGGGCCCGCCTCCAGGCGCCCTCCTGGTCTCCGCTCCCCTCTGAGCCCCGTTAAACCCAAAGAATGTCTGAGGGGAGCCACCCTCGGGGCCCAGGCCCCAGAGTCACAC / CCCCTCAGACATTCTTTGGGTTTA [g3 guide / EBV cfDNA SPR amplicon]” was run?
**A.** The pKd was 8.26.

Reference: PMC10908814
